2 molecules from PMC4284786, “Refolded scFv Antibody Fragment against Myoglobin Shows Rapid Reaction Kinetics” (International Journal of Molecular Sciences, 2014) can be followed below.

For assay [1], the target named is T1, conalbumin (Gallus gallus (assumed), UniProt P02789).
T1 construct: conalbumin (ovotransferrin)
Kind of assay: ELISA; proteins coated on a 96-well plate (human myoglobin 5 μg/mL in carbonate buffer pH 9.6, 4 °C, 16 h), blocked with BSA in PBST; scFv or premature antibody added for 1 h at 37 °C; scFv detected by anti-6x His tag antibody and HRP-conjugated secondary antibody; scFv 1.9 μg/mL, IgG2-7Ds 0.5 μg/mL in the comparison of proteins. As to conditions: both partners purified. (In general: ELISA stands for enzyme-linked immunosorbent assay.)

The target in assay [2] is T2, equine myoglobin (Equus caballus, UniProt P68082).
T2 construct: myoglobin, equine
The assay is described as above. As to conditions: both partners purified.

For assay [3], the target named is T3, human myoglobin (human, UniProt P02144 1-154).
T3 chain: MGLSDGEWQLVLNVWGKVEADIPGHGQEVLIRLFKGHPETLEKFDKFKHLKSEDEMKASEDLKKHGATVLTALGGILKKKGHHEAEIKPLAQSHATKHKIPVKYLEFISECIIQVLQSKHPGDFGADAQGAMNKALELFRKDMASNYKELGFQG
Kind of assay: BLI. A general note: In BLI a coated tip is dipped into the sample, and binding shifts an interference pattern.

The target of assay [4] is T3, human myoglobin. Kind of assay: BLI.
The target of assay [5] is T4, human myoglobin (Homo sapiens, UniProt P02144).
T4 construct: myoglobin, human; also called myoglobin antigen; human myoglobin antigen
Kind of assay: BLI; Octet Red; human myoglobin (5 μg/mL in PBS, pH 7.4) immobilised on APS sensor tip at 30 °C for 900 s, blocked with 0.5% casein in PBS; scFv in casein-PBS; BSA as negative control. To be noted: both partners purified.

Assay [6] concerns the target T5, myoglobin peptide, aa 144–154 (Homo sapiens, UniProt P02144).
T5 construct: also called C-terminal region of the myoglobin peptide; source: synthetic peptide
T5 chain: ASNYKELGFQG
Kind of assay: ELISA; synthetic peptides of human myoglobin and human cardiac troponin I; scFv 1.9 μg/mL, IgG2-7Ds 0.5 μg/mL. To be noted: both partners purified.

T2 sequence (P68082 whole entry): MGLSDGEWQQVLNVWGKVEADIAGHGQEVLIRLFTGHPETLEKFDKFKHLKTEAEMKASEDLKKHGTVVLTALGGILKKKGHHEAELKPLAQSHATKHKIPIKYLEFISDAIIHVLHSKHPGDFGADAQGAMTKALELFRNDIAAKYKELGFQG
T1 sequence (P02789 20-705): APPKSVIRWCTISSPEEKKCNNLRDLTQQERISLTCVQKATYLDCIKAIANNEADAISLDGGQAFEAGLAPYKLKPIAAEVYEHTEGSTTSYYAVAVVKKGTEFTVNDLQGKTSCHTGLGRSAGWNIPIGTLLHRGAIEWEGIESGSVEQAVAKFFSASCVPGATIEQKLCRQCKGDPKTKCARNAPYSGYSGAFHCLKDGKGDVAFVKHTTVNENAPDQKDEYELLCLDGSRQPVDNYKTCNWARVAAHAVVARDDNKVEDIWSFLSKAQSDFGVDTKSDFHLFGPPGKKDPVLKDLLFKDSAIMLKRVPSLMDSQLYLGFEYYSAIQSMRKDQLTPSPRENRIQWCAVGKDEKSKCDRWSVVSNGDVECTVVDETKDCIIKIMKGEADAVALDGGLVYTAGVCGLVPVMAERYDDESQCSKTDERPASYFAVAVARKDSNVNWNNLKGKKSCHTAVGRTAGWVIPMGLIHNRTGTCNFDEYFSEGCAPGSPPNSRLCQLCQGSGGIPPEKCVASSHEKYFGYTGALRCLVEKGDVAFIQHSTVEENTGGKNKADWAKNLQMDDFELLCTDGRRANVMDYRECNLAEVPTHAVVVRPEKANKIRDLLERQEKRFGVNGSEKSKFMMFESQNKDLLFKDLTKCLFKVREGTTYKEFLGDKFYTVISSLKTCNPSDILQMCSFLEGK

B1: parent premature antibody Myo2-7Ds (whole IgG) (antibody, V domains shown)
VH: QIQLVQSGPELKKPGETVKISCKASGYTFTDYSIHWVRQAPEKGLKWMGWINTETGEPTYADDFTGRFAFSLETSASTAYLQITNLKNEDTATYFCARRFTTTTWFAYWGQGTLVTVSA
VL: DVLMTQTPLSLPVSLGDQASISCRSSQNIVHSSGNTYLEWYLQKPGQSPRFLIYKVSNRFSGVPDRFSGSGSGTDFTLKISRVEAEDLGVYYCFQGSHVPYTFGGGTKLEIK
notes: as the VH of m1; constant part of the heavy chain; as the VL of m1; constant part of the light chain; IgG; The variable regions were the template of the scFv m1; also called IgG2-7Ds; parental antibody
As usually defined, the koff is the first-order rate constant of dissociation. Low readings indicate slow dissociation, high ones fast dissociation. In general, Kd refers to a measure of binding affinity in units of concentration. Lower therefore signals a tighter complex. As for B1, the binding result is “no binding (tested: IgG2-7Ds 0.5 μg/mL)” in assay [1] and “binds” in assay [2]. In assay [3], this molecule had a koff of 0.0104 s⁻¹. Also, in assay [4], the Kd came out at 2.89 nM.

B2: refolded scFv-Myo2-7Ds (scFv, V domains shown)
VH: B1 VH
VL: B1 VL
notes: VH of the monoclonal antibody Myo2-7Ds; (GGGGS) x 3 linker between VH and VL; VL of the monoclonal antibody Myo2-7Ds; Plasmid pET28a-scFv-Myo2-7Ds6xH, no pelB leader; A TEV cleavage site stands between the N-terminal His6 tag and the scFv; no cleavage is reported; The abstract gives the order VH-VL, but both printed primers seem to encode ends of a light chain; also called 2-7ds …
For orientation: kon means a measure of how fast the partners come together. A low value points to slow association. Consider B2, for which the Kd in assay [5] worked out at 10 nM; in assay [4], 61.1 nM. The same molecule had a koff in assay [5] of 0.00629 s⁻¹. Also, the kon in assay [5] came out at 93200 M⁻¹ s⁻¹. The values for the binding result in assay [6], in assay [1] and in assay [2] were “binds”, “no binding (tested: scFv 1.9 μg/mL)” and “binds”, respectively.
